Assay results: paper PMC11764276
pKd: −log10 of the molar value.

Target: 2196 HC + alphamod1 LC (human)
Assay: SPR; Biacore 8k; antibody captured on a Series S Protein A chip to ~200 RU or greater; 4X serially diluted RBD starting at 1,000 nM flowed at 50 uL/min, 120 s contact, 600 s dissociation; HBS-EP+ buffer; 1:1 Langmuir fitting, steady state analysis, or two-state reaction fitting

2196 HC + alphamod1 LC (human), sequence (heavy, as listed by the source, chain 1 of 2): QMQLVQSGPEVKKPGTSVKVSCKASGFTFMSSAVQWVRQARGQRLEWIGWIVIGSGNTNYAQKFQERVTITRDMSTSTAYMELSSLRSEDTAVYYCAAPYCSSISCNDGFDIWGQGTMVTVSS
2196 HC + alphamod1 LC (human), sequence (light, as listed by the source, chain 2 of 2): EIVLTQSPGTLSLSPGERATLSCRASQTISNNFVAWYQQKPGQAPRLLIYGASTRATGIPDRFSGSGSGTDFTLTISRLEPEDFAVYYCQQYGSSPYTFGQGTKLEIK

Substance: RBD (residues 334–527 of the SARS-CoV-2 spike glycoprotein) (from UniProt P0DTC2 334-527) (domain or fragment)
- pKd: 7.00
